T1: recombinant human CD25 extracellular domain tagged with 6xHis (human, UniProt P01589 22-240)
T1 chain: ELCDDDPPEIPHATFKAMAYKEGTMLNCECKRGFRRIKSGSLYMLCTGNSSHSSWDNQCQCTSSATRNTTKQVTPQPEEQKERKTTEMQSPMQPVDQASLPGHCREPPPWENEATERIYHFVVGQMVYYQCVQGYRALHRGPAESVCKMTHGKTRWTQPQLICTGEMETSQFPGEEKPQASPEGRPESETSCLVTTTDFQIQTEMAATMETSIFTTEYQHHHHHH

B1: CD25 (receptor)
chain: T1 chain
B2: E68Q (protein)
chain: APTSSSTKKTQLQLEHLLLDLQMILNGINNYKNPKLTRMLTFKFYMPKKATELKHLQCLEEELKPLEQALNLAPSKNFHLRPRDLISNINVIVLELKGSETTFMCEYADETATIVEFLNRWITFSQSIISTLT

Assays:
[1] = target: T1, recombinant human CD25 extracellular …

Binder	Kd (V69A) [nM]	Kd (L72I) [nM]	Kd (M104D) [nM]	Kd (I114W) [nM]	Kd (N71Y) [nM]	Kd [1] [nM]
B1	0.023	0.024	0.028	0.038	0.018	
B2						0.022
